Data set [1] deals with T1, NfsA (Escherichia coli, UniProt P17117).
T1 construct: full-length, untagged, from pET24 derivative pPS1341A1 in E. coli BL21(lambda DE3); 240 amino acids
Briefly: stopped-flow re-oxidation of reduced enzyme, […] nm, anaerobic. The note with it: dithionite-reduced enzyme. It counts as biochemical.

For data set [2], the target named is T1, NfsA. In words: steady-state kinetics. It counts as biochemical. As to conditions: co-substrate NADPH.
The subject of data set [3] is NC(=O)C1=CN([C@@H]2O[C@H](COP(=O)(O)OP(=O)(O)OC[C@H]3O[C@@H](n4cnc5c(N)ncnc54)[C@H](O)[C@@H]3O)[C@@H](O)[C@H]2O)C=CC1. Briefly: purified protein. It counts as biochemical, Escherichia coli. As to conditions: 100 μM nitrofurazone, 10 mM Tris pH 7.0, 4.5% DMSO, 25 °C.
The test system of data set [4] is NC(=O)C1=CN([C@@H]2O[C@H](COP(=O)(O)OP(=O)(O)OC[C@H]3O[C@@H](n4cnc5c(N)ncnc54)[C@H](OP(=O)(O)O)[C@@H]3O)[C@@H](O)[C@H]2O)C=CC1. In words: purified protein. The class given is biochemical, Escherichia coli. As to conditions: 100 μM nitrofurazone, 10 mM Tris pH 7.0, 4.5% DMSO, 25 °C.
Data set [5] has as its system NC(=O)N/N=C/c1ccc([N+](=O)[O-])o1. In words: purified protein. As to conditions: co-substrate NADPH, 10 mM Tris pH 7.0, 50 mM NaCl, 4.5% DMSO, 25 °C. The class given is biochemical, Escherichia coli.
Data set [6] has as its target T1, NfsA. In words: steady-state inhibition of nitrofurazone reduction, global ping-pong fit, […] nm. It counts as biochemical.

T1 sequence (P17117 whole entry): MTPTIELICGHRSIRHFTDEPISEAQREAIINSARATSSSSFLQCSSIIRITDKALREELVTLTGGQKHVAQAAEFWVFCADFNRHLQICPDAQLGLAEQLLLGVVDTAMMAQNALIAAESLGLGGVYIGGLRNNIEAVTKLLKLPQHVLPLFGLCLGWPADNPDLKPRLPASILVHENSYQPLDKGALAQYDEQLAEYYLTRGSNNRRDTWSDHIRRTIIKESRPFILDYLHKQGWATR

With `NC(=O)c1cc(N2CC2)c([N+](=O)[O-])cc1[N+](=O)[O-]` [CB1954, 5 aziridin‐1‐yl‐2,4 dinitrobenzamide], the K d in data set [1] (10 mM Tris pH 7, 5% DMSO, 25 °C, unreliable (extrapolated beyond highest concentration 500 μM)) was 660 ± 90 µM.
Broadly, the Km is the substrate concentration at which the rate is half of its maximum. Regarding `CC1=CC(=O)c2ccccc2C1=O` [menadione], in data set [1] (10 mM Tris pH 7, 25 °C, unreliable (extrapolated, highest concentration 100 μM)), the K d was 330 ± 115 µM. In data set [2], the Km turned out to be 11 ± 2 µM.
A word on the kcat: it is the number of substrate molecules converted per active site and unit of time at saturation. By kcat/Km is commonly meant the second-order rate constant that governs catalysis at low substrate concentration. NfsA (Escherichia coli K-12): the Km in data set [3] was 700 ± 100 µM; in data set [4], 19 ± 4 µM; in data set [5] it was 12 µM. The kcat in data set [3] is 20 ± 1 s⁻¹; in data set [4] it was 24 ± 1 s⁻¹; in data set [5], 23.1 s⁻¹. The specificity constant (kcat/Km) in data set [3] came to 27000 ± 3000 M⁻¹ s⁻¹; in data set [4], 1.2e+06 ± 200000 M⁻¹ s⁻¹.
As usually defined, the Ki is the dissociation constant of the complex between target and ligand, obtained from inhibition or displacement. A lower Ki goes with a stronger hold on the target. In turn, `NC(=O)c1ccc[n+]([C@@H]2O[C@H](COP(=O)(O)OP(=O)(O)OC[C@H]3O[C@@H](n4cnc5c(N)ncnc54)[C@H](OP(=O)(O)O)[C@@H]3O)[C@@H](O)[C@H]2O)c1` [NADP^+] registered a Ki in data set [6] of 250 ± 70 µM.

(Values after publication PMC9912195, “The 3D‐structure, kinetics and dynamics of the E. coli nitroreductase NfsA with NADP ^+ provide glimpses of its catalytic mechanism” (Febs Letters, 2022).)
